Reference: the supplement of paper PMC12042874
± gives the uncertainty stated by the source.

Assay: amyloid nucleation score (Sup35N fusion, yeast selection) (log enrichment); library NNK2; higher = more nucleation; inactive = no reads after selection
In short: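 DiMSum was used to calculate nucleation scores as log enrichment of output over input reads, centred on the mode score of non-aggregating sequences. Sequences with fewer than 100 input reads were not scored. Input and output came from Illumina sequencing of plasmid inserts in psi-negative yeast expressing peptides of 20 random codons fused to Sup35N, induced 24 hours with 100 μM copper sulfate and then grown 7 days at 30°C on medium lacking adenine and uracil.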

Substance | amyloid nucleation score
RRWTHKEPIKASLVRRFLRV | inactive
RGRAFGPEIRNKSLGLTYPV | 0.282 ± 0.21
RHRRHLNHYAPTSSMIWTYS | 0.258 ± 0.65
SYFMRDSTN | inactive
VAVISDWGWQNWMSVVGVGH | inactive
HNPSIAARCGGICYDNITVW | 0.838 ± 0.51
SVDIKIFLQPAYFCNATAAV | 6.435 ± 0.039
DLKVWAWKLILFGIMDLGGH | 3.89 ± 0.048
ILWWFRVTAHAWEDETGWMW | 0.098 ± 0.23
VMRRVVKKQSWYLIKGLSM | 0.802 ± 0.32
YCCGGRIRKSRLINFYVTWS | -0.046 ± 0.5
TQLIVMCHFVVHRRVKWRI | 0.786 ± 0.3
DRVLRVDSLSAVAVNNLVVR | -0.178 ± 1.1
YVLRQEVCIIPINSMFVNSF | 6.091 ± 0.045
AYMVDLYYTVWPGIVLLYM | 0.152 ± 0.44
VCFRYGEYLNVKIF | -0.789 ± 0.63
LLRGRFGDSVSAVGFSGFCN | -0.502 ± 0.45
CDSVVKRIFGTFAGVHLHME | -0.228 ± 1.1
SCSTYNDSSVYWFN | 2.04 ± 0.077
KLSLNVLGSRSERWLLLFSC | -0.291 ± 0.79
CMYVLFLRWLNQAM | inactive
SSYESLCKIYLNFCQTD | 6.761 ± 0.059
ITSICGIIE | inactive
RIYGILVSFYCIVYDGFSGG | 1.9 ± 0.082

Substance | amyloid nucleation score
NVLLKNLESPIFYRDMTTL | -0.252 ± 0.76
KNWVYVAWRRENYEQPFIR | -0.299 ± 1
SRAKMVFNFGAWFSRVCKN | 2.42 ± 0.088
GESSPE | 0.343 ± 0.8
EWVRWLVVLNLRSNAGNYDI | -0.953 ± 0.54
SYDDVVILDFYDGIL | inactive
YSFFIIVSALIGRWAS | -0.894 ± 1.1
VFPMVFTKGNANVCHI | 0.886 ± 0.58
KYMINAYTAGWIGV | -1.41 ± 0.34
WSRFSCRT | 1.24 ± 0.2
MSNRVCCNYVGSHVRYCVSK | 4.913 ± 0.048
IAVYTYLAGAWKHLETLAFP | 3.8 ± 0.1
MSVKSEAGRRSLRMNSKTSR | 0.078 ± 0.22
SNKTIYKLFRIISPGYFGSS | -1.16 ± 1
IFIPSFWGIFTIPM | -1.01 ± 1
VDFFCQPGTCVQEVEDLLVL | -0.166 ± 0.35
FGYAVVQRYYKWWIAMNTQA | -0.04 ± 0.42
CKWTSKIWMRLVRKSEMSVE | 1.16 ± 0.27
PRDNSQVLILLNW | 5.424 ± 0.041
LNTMPRK | 0.004 ± 1.1
RYGERIFV | 0.627 ± 0.43
CMKAYKIRLLVLEDINSSFS | -1.85 ± 0.48
YFSYPC | -1.82 ± 1
NSFRISGLVDLVNNLSGYLS | -1.34 ± 0.61

Substance | amyloid nucleation score
WCLLAIFSYCNDPLVLIARR | 2.26 ± 0.12
KALFLCILMLSASAFQEECH | 4.47 ± 0.085
MLCRMSAFRLGMRYDTRFLL | -0.064 ± 1.1
WLNHYAQLIHRARGHVWNMY | -0.685 ± 0.63
VGPMEGGYPGVAQLLGEKRN | 2.3 ± 0.2
LCVLLHVTEKLKANSTLSCV | -0.317 ± 1.1
SPAQCIGVCNRLKLYCST | 0.262 ± 0.45
KYENYLCITFMGCLLGMRSE | inactive
VFNILFSM | 9.098 ± 0.06
IYYGGLKHARVPVTRFEGSP | 3.87 ± 0.098
DALGSYWMTAMTF | 0.371 ± 0.44
GSYLA | 0.697 ± 0.47
ISMTL | 6.15 ± 0.081
VYYAGSK | -0.562 ± 1.1
PRLPTQTITK | 1.53 ± 0.16
VSRDIIKKVSASNRSMVSDS | 0.163 ± 0.56
YGFASFSLYDYYLLVCSMFI | inactive
MGNLCCVPRYYMHQVEYPRF | inactive
TLYFYFRLSW | 0.276 ± 0.8
SGWELYP | 1.91 ± 0.11
LSFDEVTLVRAKFHGSVIRL | 4.86 ± 0.06
DFCGRG | -0.152 ± 0.76
